Columns and labels:
[1] = molecular target: T1, HLA-A*02:01 on T2 cells alone (no peptide added) (human); assay: flow cytometry, phage on T2 cells
T1 construct: TAP-deficient T2 cells without pulsed peptide; negative control target, and the HLA molecule whose stabilisation by peptides is read in the T2 stabilization assay; also called HLA-A*02 molecule; HLA-A2 molecule

[2] = molecular target: T2, R3 (RHAMM-R3) peptide/HLA-A*02:01 complex on T2 cells (human); assay: flow cytometry, phage on T2 + R3 peptide; secondary only 123, unstained 99.8
T2 construct: Control target of the phage staining of T2 cells; also called T2 cells pulsed with R3 peptide; RHAMM 3 (R3)

[3] = molecular target: T1, HLA-A*02:01 on T2 cells alone (no …); assay: flow cytometry, phage on T2 without peptide; secondary only 121, unstained 106
[4] = molecular target: T1, HLA-A*02:01 on T2 cells alone (no …); assay: flow cytometry, phage on T2 without peptide; secondary only 100, unstained 99.5
[5] = molecular target: T3, Foxp3-7 peptide/HLA-A*02:01 complex on the cell surface (human); assay: flow cytometry, phage on T2 + Foxp3-7 peptide; secondary only 133, unstained 103
T3 construct: also called Foxp3-7/HLA-A2 complex

[6] = molecular target: T3, Foxp3-7 peptide/HLA-A*02:01 complex on …; assay: flow cytometry, phage on T2 + Foxp3-7 peptide; secondary only 116, unstained 93.8
[7] = molecular target: T4, T2+EW (Homo sapiens, UniProt A*02:01); assay: flow cytometry, phage on T2 + EW peptide; secondary only 113, unstained 94.7
T4 construct: on the surface of T2 cells; irrelevant control peptide; also called EW peptide/HLA-A*02:01 complex on T2 cells; T2 pulsed with EW peptide

[8] = molecular target: T3, Foxp3-7 peptide/HLA-A*02:01 complex on …; assay: flow cytometry, phage on T2 + Foxp3-7 peptide; secondary only 104, unstained 81.7
[9] = molecular target: T2, R3 (RHAMM-R3) peptide/HLA-A*02:01 …; assay: flow cytometry, phage on T2 + R3 peptide (as the table names the samples); secondary only 109, unstained 80.9
[10] = molecular target: T1, HLA-A*02:01 on T2 cells alone (no …); assay: flow cytometry, phage on T2 without peptide; secondary only 320, unstained 91.4
[11] = molecular target: T3, Foxp3-7 peptide/HLA-A*02:01 complex on …; assay: flow cytometry, phage on T2 + Foxp3-7 peptide; secondary only 318, unstained 95.8
[12] = molecular target: T4, T2+EW; assay: flow cytometry, phage on T2 + EW peptide; secondary only 310, unstained 93
[13] = molecular target: T1, HLA-A*02:01 on T2 cells alone (no …); assay: flow cytometry, phage on T2 without peptide
[14] = molecular target: T1, HLA-A*02:01 on T2 cells alone (no …); assay: flow cytometry, phage on T2 without peptide; secondary only 118, unstained 95.2
[15] = molecular target: T2, R3 (RHAMM-R3) peptide/HLA-A*02:01 …; assay: flow cytometry, phage on T2 + R3 peptide; secondary only 126, unstained 94.4

B1: EXT017-11 scFv phage clone (scFv)
scFv: NFMLTQPHSVSESPGKTVTISCTRSSGSIASNYVQWYQQRPGSAPTTVIYEDNQRPSGVPDRFSGSIDSSSNSASLTISGLKTEDEADYYCQSYDTNNYGVIFGGGTKLTVLGSRGGGGSGGGGSGGGGSLEMAQMQLVQSGAEVKKPGASVKVSCKTSGYTFNNYYMHWVRQAPGQGLEWMGIINPSGGSTNYAQKFQGRVTMTRDTSTSTVYMELSSLRSEDTAVYYCARSFDKQDIDYWGQGTLVTVSSTSGQAGQHHHHHHGAYPYDVPDYAS
notes: also called phage clone #11
With B1 the binding result [1] was “no binding”, the “Median:FITC-A” value [2] was 144 and the “Median:FITC-A” value [3] was 143. The “Median:FITC-A” value [4] was 142, the “Median:FITC-A” value [5] was 1690 and the “Median:FITC-A” value [6] was 454. The “Median:FITC-A” value [7] was 143, the “Median:FITC-A” value [8] was 2620 and the “Median:FITC-A” value [9] was 119.

B2: #30 (scFv)
scFv: SYVLTQPPSVSVAPGQTARMTCEGSNLGSKSVHWYQQKPGQAPVLVVHDDSDRPSGIPDRFSGSKSGNTATLTISRVEAGDEADYYCQVWHSSSDHYVFGTATKVTVLGSRGGGGSGGGGSGGGGSLEMAQVQLVQSGAEVKKPGASVKVSCKASGYTFTNYYIHWVRQAPGQGLEWMGIIRPSGGITNYAQKFQGRVSMTRDTSTSTVYMELSSLRSEDTAVYYCARSWHENSGVDSWGQGTLVTVSSTSGQAGQHHHHHHGAYPYDVPDYAS
notes: also called EXT017-30; EXT017-30 scFv phage clone
For B2, the “Median:FITC-A” value [10] was 354, the “Median:FITC-A” value [11] was 1130 and the “Median:FITC-A” value [12] was 378.

B3: EXT017-26 scFv phage clone (scFv)
scFv: SYVLTQPPSVSVAPGQTARITCGGTDIRRKTVHWYQQKPGLAPVLVLYDDSDRPSGIPERFSGSNSGNTATLTISRVEGGDEADYYCQVWDNDNDHYVFGPGTKVTVLGSRGGGGSGGGGSGGGGSLEMAEVQLVQSGAEVKKPGASVKVSCKASGYTFTNYYIHWVRQTPGEGLEWMGIIRPSGGNTNYAQKFQGRVTMTRDTSTRTVYMELSSLRSEDTAVYYCARSWDTFSDEWGQGTLVTVSSTSGQAGQHHHHHHGAYPYDVPDYAS
notes: also called phage clone #26
With B3 the binding result [1] was “no binding”, the “Median:FITC-A” value [2] was 144 and the “Median:FITC-A” value [3] was 146. For the same binder, the “Median:FITC-A” value [10] was 385, the “Median:FITC-A” value [6] was 410 and the “Median:FITC-A” value [11] was 1880. For the same binder, the “Median:FITC-A” value [12] was 375.

B4: (FoxP2)_#9 (scFv)
scFv (VL-linker-VH-His/HA tag): SYELTQPPSVSVAPGKTARITCGGNNIGSKSVHWYQQKPGQAPVLVIYYDSDRPSGIPERFSGSNSGNTATLTISRVEAGDEADYYCQVWDSSSDHWVFGGGTKLTVLGSRGGGGSGGGGSGGGGSLEMAQVQLVQSGGGLVQPGGSLKLSCAASGFAFSGSSLHWVRQASGKGLEWVGRITSKAYNYATLYAASVKGRFTISRDDSKNTAYLQMNSLQTEDTAVYYCTQTGDSSAYWGQGTLVTVSSTSGQAGQHHHHHHGAYPYDVPDYAS
notes: also called EXT019-9; EXT019-09 scFv phage clone
In the case of B4, the binding result [13] is reported as “no binding”, the “Median:FITC-A” value [14] is reported as 140 and the “Median:FITC-A” value [15] is reported as 148.

B5: (FoxP2)_#8 (scFv)
scFv (VL-linker-VH-His/HA tag): QSVLTQPPSVSEAPRQRVTISCSGSSSNIGNNAVNWYQQLPGKAPKLLIYYDDLLPSGVSDRFSGSKSGTSASLAISGLQSEDEADYYCAAWDDSLNGPVFGTGTKVTVLGSRGGGGSGGGGSGGGGSLEMAEVQLVQSGAEVKKPGASVKVSCKASGYNFTSYGISWVRQAPGQGLEWMGWISAYNGNTNYAQKLQGRVTMTTDTSTSTAYMELRSLRSDDTAVYYCARDWDYDFLTGWDGMDVWGQGTTVTVSSTSGQAGQHHHHHHGAYPYDVPDYAS
notes: also called EXT019-8; EXT019-08 scFv phage clone
In the case of B5, the binding result [13] is reported as “no binding”, the “Median:FITC-A” value [14] is reported as 141 and the “Median:FITC-A” value [15] is reported as 142.

B6: (FoxP2)_#6 (scFv)
scFv (VL-linker-VH-His/HA tag): QSVVTQPPSVSGAPGQGVTIPCTGSSSNIGAGYDVHWYQQLPGTAPKLLIYGNNNRPSGVPDRFSGSRSGSSASLAITGLQAEDEADYYCQSYDSSLSDVVFGGGTKLTVLGSRGGGGSGGGGSGGGGSLEMAEVQLVQSGAEVKKPGESLKISCKGSGYNFASEWIGWVRQMPGKGLEWMGLIYPAESEITYSPSFQGQVTISVDKSISTAYLQWSSLKASDTAMYYCARAWDANYIYMDIWGQGTLVTVSSTSGQAGQHHHHHHGAYPYDVPDYAS
notes: also called EXT019-6; EXT019-06 scFv phage clone
For B6, the binding result [13] was “no binding”, the “Median:FITC-A” value [14] was 146 and the “Median:FITC-A” value [15] was 157.

B7: (FoxP2)_#4 (scFv)
scFv (VL-linker-VH-His/HA tag): QPVLTQPPSVSVAPGKTARITCGGNNIGSKSVHWYQQKPGQAPVLVIYYDSDRPSGIPERFSGSNSGNTATLTISRVEAGDEADYYCQVWDSSSDHPVFGGGTKLTVLGSRGGGGSGGGGSGGGGSLEMAQVQLVQSGAEVKKPGSSVKVSCKASGGTFSSYAISWVRQAPGQGLEWMGGIIPIFGTANYAQKFQGRVTITADESTSTAYMELSSLRSEDTAVYYCARSSYWWTSDRWGQGTLVTVSSTSGQAGQHHHHHHGAYPYDVPDYAS
notes: also called EXT019-4; EXT019-04 scFv phage clone
B7 was tested, and the binding result [13] was “no binding”, the “Median:FITC-A” value [14] was 147 and the “Median:FITC-A” value [15] was 145.

B8: (FoxP2)_#20 (scFv)
scFv (VL-linker-VH-His/HA tag): SYVLTQPPSVSVAPGKTARITCGGNNIGSKSVHWYQQKPGQAPVLVIYYDSDRPSGIPERFSGSNSGNTATLTISRVEAGDEADYYCQVWDSSSDRVVFGGGTKLTVLGSRGGGGSGGGGSGGGGSLEMAQVQLQQSGPGLVKPSQTLSLTCAISGDSISSKSAAWNWIRQSPSRGLEWLGRTYYRSKWYYEYAPSVRSRITINRDTSKNQFSLQLNSVTPEDTAVYYCARSTGTFDYWGQGTLVTVSSTSGQAGQHHHHHHGAYPYDVPDYAS
notes: also called EXT019-20 scFv phage clone
B8 was tested, and the binding result [13] was “no binding”, the “Median:FITC-A” value [14] was 149 and the “Median:FITC-A” value [15] was 148.

B9: (FoxP2)_#15 (scFv)
scFv (VL-linker-VH-His/HA tag): SYVLTQPPSVSVAPGETASITCGANNIGSESVHWYQQKSGQAPVLVIYYDSDRPSGIPERFSGSNSDNTATLTISRVEAGDEADYYCQVWDHINDHYVFGSGTKVTVLGSRGGGGSGGGGSGGGGSLEMAEVQLVESGGGLAQPGGSLRLSCAASGFSFSNYAMSWVRQAPGTGLEWVAGISGRGGSIHYADSVKGRFTISRDNSQSTVFLQMNNLGAEDTAIYYCAKSSEDYYFYHMDAWGIGTTVTVSSTSGQAGQHHHHHHGAYPYDVPDYAS
notes: also called EXT019-15 scFv phage clone
For B9, the binding result [13] was “no binding”, the “Median:FITC-A” value [14] was 145 and the “Median:FITC-A” value [15] was 145.

B10: (FoxP2)_#13 (scFv)
scFv (VL-linker-VH-His/HA tag): LPVLTQPPSVSVAPGKTARITCGGNNIGSKSVHWYQQKPGQAPVLVIYYDSDRPSGIPERFSGSNSGNTATLTISRVEAGDEADYYCQVWDSSSAYVFGTGTKVTVLGSRGGGGSGGGGSGGGGSLEMAQVQLQQSGPGLVKPSQTLSLTCAISGDSVSSNSAAWNWIRQSPSRGLEWLGRTYYRSKWYNDYAVSVKSRITINPDTSKNQFSLQLNSVTPEDTAVYYCARYYSTSLDSWGQGTLVTVSSTSGQAGQHHHHHHGAYPYDVPDYAS
notes: also called EXT019-13 scFv phage clone
With B10 the binding result [13] was “no binding”, the “Median:FITC-A” value [14] was 143 and the “Median:FITC-A” value [15] was 141.

B11: (FoxP2)_#12 (scFv)
scFv (VL-linker-VH-His/HA tag): SYELTQPPSVSVAPGKTARITCGGNNIGSKSVHWYQQKPGQAPVLVIYYDSDRPSGIPERFSGSNSGNTATLTISRVEAGDEADYYCQVWDSSSDHRVFGGGTKVTVLGSRGGGGSGGGGSGGGGSLEMAEVQLVESGGGLVQPGGSLRLSCAASGFTFSSYWMNWVRQAPGKGLEWVANIKQDGSEKNYVDSVKGRFTISRDNAKNSLYLQMNSLRGEDTAVYYCARYGGGPYDSWGQGTLVTVSSTSGQAGQHHHHHHGAYPYDVPDYAS
notes: also called EXT019-12 scFv phage clone
With B11 the binding result [13] was “no binding”, the “Median:FITC-A” value [14] was 151 and the “Median:FITC-A” value [15] was 151.

B12: EXT017-9 scFv phage clone (scFv)
scFv: QSALTQPASASGSPGQSVTISCTGTSSDVGGYNYVSWYQQHPGKAPKLMIYEVSKRPSGVPDRFSGSKSGNTASLTVSGLQAEDEADYYCSSYAGSNNVVFGGGTKLTVLGSRGGGGSGGGGSGGGGSLEMAEVQLVQSGAEVKKPGASVKISCKASRYTFTNYYIHWVRQAPGQGLEWMGIINPSGGSTTYPQNFQGRLTMTRDTSTSTVYMELSSLRSEDTAMYYCARGWSGYDPGDFWGQGTLVTVSSTSGQAGQHHHHHHGAYPYDVPDYAS
notes: also called phage clone #9
For B12, the binding result [1] was “no binding”, the “Median:FITC-A” value [2] was 144 and the “Median:FITC-A” value [3] was 150. For the same binder, the “Median:FITC-A” value [4] was 149, the “Median:FITC-A” value [5] was 1730 and the “Median:FITC-A” value [6] was 287. For the same binder, the “Median:FITC-A” value [7] was 151.

From US20190284262A1 (Memorial Sloan Kettering, published 2019)
